Results as given in patent publication US20190127459 (published 2019).

Target: T1, mouse IL-22R (mouse, UniProt Q80XZ4)
T1 chain: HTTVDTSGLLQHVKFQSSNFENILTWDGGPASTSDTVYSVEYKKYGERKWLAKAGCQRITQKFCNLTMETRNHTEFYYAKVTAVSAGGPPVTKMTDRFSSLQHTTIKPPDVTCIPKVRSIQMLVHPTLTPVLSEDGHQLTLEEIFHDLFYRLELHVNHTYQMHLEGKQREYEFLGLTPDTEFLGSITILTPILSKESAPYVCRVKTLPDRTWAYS

binding result: no binding
B1: 230C9 (antibody, V domains shown)
VH: QVQLVESGGGLVQPGGSLRLSCAASGFTFSSYDMNWVRQAPGKGLEWVSSIYNDASNTAYSDSVKGRFTISRDNSKNTLYLQMNSLRAEDTAVYYCAKVGFSGTYYSESWGQGTLVTVSS
VL: SYELTQPSSVSVALGQTARITCQGGYYAHWYQQKPGQAPVLVIYGQNNRPSGIPERFSGSGAGNTATLTISRAQAEDEADYYCQSGSSSSNAVFGGGTKLTVL
